Reference: publication PMC2653193, “A Unique Dual Activity Amino Acid Hydroxylase in Toxoplasma gondii” (PLoS ONE, 2009)

Key:
[1] = molecular target: T1, TgAaaH2 (Toxoplasma gondii, UniProt B2L7T2); assay: coupled dihydropteridine reductase assay, NADH oxidation at […] nm; format: biochemical; conditions: 50 µM amino acid (tyrosine in Figure 4B), 0-500 µM 6-MPH4, 500 µM NADH, 10 µM ferrous ammonium sulphate, 50 mM HEPES, pH 7.5, 32°C; range printed jointly for both enzymes, not assigned
T1 construct: gene AaaH2; N-terminal 23 residues (predicted signal peptide) removed; N-terminal 6xHis tag (pET 45b) kept; E. coli BL21; full-length ORF 565 residues; primer text says begins at residue 23
T1 sequence (B2L7T2 23-565): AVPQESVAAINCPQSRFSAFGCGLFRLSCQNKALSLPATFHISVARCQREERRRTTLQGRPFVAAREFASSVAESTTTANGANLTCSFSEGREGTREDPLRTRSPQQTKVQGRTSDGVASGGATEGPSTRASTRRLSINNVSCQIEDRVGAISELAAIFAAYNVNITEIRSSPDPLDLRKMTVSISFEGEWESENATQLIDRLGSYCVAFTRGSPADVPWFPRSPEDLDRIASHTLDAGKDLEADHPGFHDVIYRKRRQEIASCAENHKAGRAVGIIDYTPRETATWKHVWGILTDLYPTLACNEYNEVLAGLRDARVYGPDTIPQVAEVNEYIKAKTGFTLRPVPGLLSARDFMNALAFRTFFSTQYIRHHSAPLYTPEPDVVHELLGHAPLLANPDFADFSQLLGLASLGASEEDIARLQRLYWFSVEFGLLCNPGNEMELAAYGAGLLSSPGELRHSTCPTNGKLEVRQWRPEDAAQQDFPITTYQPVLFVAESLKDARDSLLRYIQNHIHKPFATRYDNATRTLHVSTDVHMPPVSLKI

[2] = molecular target: T2, TgAaaH1 (Toxoplasma gondii, UniProt B2L7T1); assay: as above; format: biochemical; conditions: 50 µM amino acid (tyrosine in Figure 4B), 0-500 µM 6-MPH4, 500 µM NADH, 10 µM ferrous ammonium sulphate, 50 mM HEPES, pH 7.5, 32°C; range printed jointly for both enzymes, not assigned
T2 construct: gene AaaH1; N-terminal 23 residues (predicted signal peptide) removed; N-terminal 6xHis tag (pET 45b) kept; E. coli BL21; full-length ORF 565 residues; primer text says begins at residue 23
T2 sequence (B2L7T1 23-565): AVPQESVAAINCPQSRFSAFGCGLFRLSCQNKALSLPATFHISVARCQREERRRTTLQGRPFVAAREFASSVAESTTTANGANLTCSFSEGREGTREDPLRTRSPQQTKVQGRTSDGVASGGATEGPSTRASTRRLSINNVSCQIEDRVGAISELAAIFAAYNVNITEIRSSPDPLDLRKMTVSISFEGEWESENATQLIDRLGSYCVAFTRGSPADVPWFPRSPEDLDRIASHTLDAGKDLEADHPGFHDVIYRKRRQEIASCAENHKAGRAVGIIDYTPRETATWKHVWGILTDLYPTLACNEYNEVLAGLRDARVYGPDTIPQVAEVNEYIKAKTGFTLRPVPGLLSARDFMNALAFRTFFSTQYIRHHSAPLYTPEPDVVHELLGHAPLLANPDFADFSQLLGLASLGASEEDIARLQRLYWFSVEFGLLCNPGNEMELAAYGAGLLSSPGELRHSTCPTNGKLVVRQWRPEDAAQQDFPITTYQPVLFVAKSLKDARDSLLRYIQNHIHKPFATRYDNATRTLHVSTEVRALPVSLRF

[3] = substrate: N[C@@H](Cc1ccc(O)cc1)C(=O)O; assay: purified protein; format: biochemical, Toxoplasma gondii; conditions: 500 µM 6-MPH4, 500 µM NADH, 10 µM ferrous ammonium sulphate, 50 mM HEPES, pH 7.5, 32°C, 0-200 µM tyrosine, substrate inhibition at high concentration
[4] = substrate: N[C@@H](Cc1ccccc1)C(=O)O; assay: purified protein; format: biochemical, Toxoplasma gondii; conditions: 500 µM 6-MPH4, 500 µM NADH, 10 µM ferrous ammonium sulphate, 50 mM HEPES, pH 7.5, 32°C, 0-200 µM phenylalanine, substrate inhibition at high concentration

CC1CNc2nc(N)[nH]c(=O)c2N1 (stereo not shown) [6-MPH4]
Km [1]: 310 to 318 µM | Km [2]: 310 to 318 µM

B1: TgAaaH1 (Toxoplasma gondii) (protein)
chain: AVPQESVAAINCPQSRFSAFGCGLFRLSCQNKALSLPATFHISVARCQREERRRTTLQGRPFVAAREFASSVAESTTTANGANLTCSFSEGREGTREDPLRTRSPQQTKVQGRTSDGVASGGATEGPSTRASTRRLSINNVSCQIEDRVGAISELAAIFAAYNVNITEIRSSPDPLDLRKMTVSISFEGEWESENATQLIDRLGSYCVAFTRGSPADVPWFPRSPEDLDRIASHTLDAGKDLEADHPGFHDVIYRKRRQEIASCAENHKAGRAVGIIDYTPRETATWKHVWGILTDLYPTLACNEYNEVLAGLRDARVYGPDTIPQVAEVNEYIKAKTGFTLRPVPGLLSARDFMNALAFRTFFSTQYIRHHSAPLYTPEPDVVHELLGHAPLLANPDFADFSQLLGLASLGASEEDIARLQRLYWFSVEFGLLCNPGNEMELAAYGAGLLSSPGELRHSTCPTNGKLVVRQWRPEDAAQQDFPITTYQPVLFVAKSLKDARDSLLRYIQNHIHKPFATRYDNATRTLHVSTEVRALPVSLRF
notes: N-terminal 23 residues (predicted signal peptide) removed; N-terminal 6xHis tag (pET 45b) kept; E. coli BL21; full-length ORF 565 residues; primer text says begins at residue 23
Km [3]: 1.25 ± 0.69 µM | Vmax [3]: 0.137 ± 0.014 µmol/min/mg | Km [4]: 2.45 ± 1.87 µM | Vmax [4]: 0.125 ± 0.015 µmol/min/mg

B2: TgAaaH2 (Toxoplasma gondii) (protein)
chain: AVPQESVAAINCPQSRFSAFGCGLFRLSCQNKALSLPATFHISVARCQREERRRTTLQGRPFVAAREFASSVAESTTTANGANLTCSFSEGREGTREDPLRTRSPQQTKVQGRTSDGVASGGATEGPSTRASTRRLSINNVSCQIEDRVGAISELAAIFAAYNVNITEIRSSPDPLDLRKMTVSISFEGEWESENATQLIDRLGSYCVAFTRGSPADVPWFPRSPEDLDRIASHTLDAGKDLEADHPGFHDVIYRKRRQEIASCAENHKAGRAVGIIDYTPRETATWKHVWGILTDLYPTLACNEYNEVLAGLRDARVYGPDTIPQVAEVNEYIKAKTGFTLRPVPGLLSARDFMNALAFRTFFSTQYIRHHSAPLYTPEPDVVHELLGHAPLLANPDFADFSQLLGLASLGASEEDIARLQRLYWFSVEFGLLCNPGNEMELAAYGAGLLSSPGELRHSTCPTNGKLEVRQWRPEDAAQQDFPITTYQPVLFVAESLKDARDSLLRYIQNHIHKPFATRYDNATRTLHVSTDVHMPPVSLKI
notes: as for B1
Km [3]: 5.50 ± 3.26 µM | Vmax [3]: 0.123 ± 0.001 µmol/min/mg | Km [4]: 14.8 ± 6.4 µM | Vmax [4]: 0.145 ± 0.037 µmol/min/mg
